Measured values taken from patent US20190030114A1, “ISOFORM-SPECIFIC CALPAIN INHIBITORS, METHODS OF IDENTIFICATION, AND USES THEREOF” (WESTERN UNIVERSITY OF HEALTH SCIENCES, priority 2014, published 2019).

Target: T1, calpain-2 (Homo sapiens, UniProt P17655)
T1 sequence (P17655 1-700): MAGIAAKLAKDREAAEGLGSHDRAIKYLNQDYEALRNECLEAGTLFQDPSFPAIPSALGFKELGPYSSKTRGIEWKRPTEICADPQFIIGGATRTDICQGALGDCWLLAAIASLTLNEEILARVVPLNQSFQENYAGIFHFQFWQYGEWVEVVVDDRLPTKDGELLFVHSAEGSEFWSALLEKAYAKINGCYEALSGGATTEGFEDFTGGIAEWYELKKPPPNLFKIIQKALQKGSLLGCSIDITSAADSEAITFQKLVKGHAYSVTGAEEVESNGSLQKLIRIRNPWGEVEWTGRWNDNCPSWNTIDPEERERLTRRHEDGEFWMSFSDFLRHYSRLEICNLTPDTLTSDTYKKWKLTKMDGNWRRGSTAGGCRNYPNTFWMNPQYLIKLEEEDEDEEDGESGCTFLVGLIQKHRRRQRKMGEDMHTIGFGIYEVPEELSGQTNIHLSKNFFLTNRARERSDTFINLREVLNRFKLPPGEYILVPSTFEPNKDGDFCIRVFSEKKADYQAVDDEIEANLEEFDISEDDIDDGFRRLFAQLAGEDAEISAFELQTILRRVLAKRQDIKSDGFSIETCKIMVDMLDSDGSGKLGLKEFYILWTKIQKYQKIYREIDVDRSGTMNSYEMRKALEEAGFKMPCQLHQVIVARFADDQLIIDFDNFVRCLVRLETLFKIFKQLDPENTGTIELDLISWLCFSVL
T1 sequence (P04632 1-268 partner): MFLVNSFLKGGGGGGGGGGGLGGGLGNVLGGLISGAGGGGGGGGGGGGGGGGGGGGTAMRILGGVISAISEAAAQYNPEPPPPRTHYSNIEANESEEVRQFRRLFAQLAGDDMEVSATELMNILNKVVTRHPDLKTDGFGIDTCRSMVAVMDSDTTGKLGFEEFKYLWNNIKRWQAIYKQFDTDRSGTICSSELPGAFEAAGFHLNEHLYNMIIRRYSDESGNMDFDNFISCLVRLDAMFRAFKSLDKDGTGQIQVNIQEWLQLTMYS
Assay: in vitro calpain-2 inhibition, succinic-Leu-Tyr-AMC substrate
Type: biochemical
Details: selectivity calpain-2 over calpain-1
Protocol: Formula 1, where chiral center 1 is the L-form and chiral center 2 is a racemic mixture of D- and L- in this example was introduced at various concentrations (from 1 nM to 10 μM) into an in vitro mix comprising succinic-Leu-Tyr-AMC and calpain-1 or calpain-2 (Sasaki et al, 1984), and the kinetics of the loss of fluorescence were determined for each of the calpains (Powers et al, 2000). […] Therefore, the assessment of selectivity described herein was different than the prior teaching.
Formula 1A, where chiral center 1 is the S-form and chiral center 2 is the S-form was separated from the S-R-form (Formula 1B) using methods that are well-known methods for separating diastereoisomers. Formula 1A, which is also referred to herein as compound 18A, in this example was introduced at various concentrations into an in vitro mix comprising succinic-Leu-Tyr-AMC and μ-calpain or m-calpain (Sasaki et al, 1984), and the kinetics of the loss of fluorescence were determined for each of the calpains.

inhibits calpain-2 more than calpain-1 (Ki lower for calpain-2): approximately 100 fold
B1: Stargazin gamma-2: protein involved in AMPA receptor trafficking, calpain-2 specific substrate; cytoplasmic C-terminus (protein, UniProt Q9Y698 1-323, looked up)
Voltage-dependent calcium …: MGLFDRGVQMLLTTVGAFAAFSLMTIAVGTDYWLYSRGVCKTKSVSENETSKKNEEVMTHSGLWRTCCLEGNFKGLCKQIDHFPEDADYEADTAEYFLRAVRASSIFPILSVILLFMGGLCIAASEFYKTRHNIILSAGIFFVSAGLSNIIGIIVYISANAGDPSKSDSKKNSYSYGWSFYFGALSFIIAEMVGVLAVHMFIDRHKQLRATARATDYLQASAITRIPSYRYRYQRRSRSSSRSTEPSHSRDASPVGIKGFNTLPSTEISMYTLSRDPLKAATTPTATYNSDRDNSFLQVHNCIQKENKDSLHSNTANRRTTPV
